# From PMC5925078 (2018)
# T1: TNFR2 variant in which the intracellular binding site for TRAF2 has been substituted by YFP (UniProt P20333 23-461)
# T1 chain: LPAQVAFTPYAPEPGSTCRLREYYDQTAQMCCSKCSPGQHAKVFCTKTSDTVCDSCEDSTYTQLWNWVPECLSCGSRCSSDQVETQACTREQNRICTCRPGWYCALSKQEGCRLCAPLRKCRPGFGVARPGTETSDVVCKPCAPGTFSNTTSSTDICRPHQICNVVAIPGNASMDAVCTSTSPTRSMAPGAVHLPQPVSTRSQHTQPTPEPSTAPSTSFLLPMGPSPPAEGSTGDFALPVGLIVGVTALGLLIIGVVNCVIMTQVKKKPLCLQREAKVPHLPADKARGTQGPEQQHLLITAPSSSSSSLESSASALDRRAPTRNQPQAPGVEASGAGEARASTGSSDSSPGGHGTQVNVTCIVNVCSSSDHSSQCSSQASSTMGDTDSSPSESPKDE
# Columns and labels:
# [1] = target: T1, TNFR2 variant in which the …; assay: cells co-expressing PGRN
# [2] = target: T1, TNFR2 variant in which the …; assay: cells, second transfection empty vector
binder,measurement,setting,value
GpL-Flag-TNC-TNF (ligand) ACGCAAAPDIKDLLSRLEELEGLVSSLREQSDKPVAHVVANPQAEGQLQWLNRRANALLANGVELRDNQLVVPSEGLYLIYSQVLFKGQGCPSTHVLLTHTISRIAVSYQTKVNLLSAIKSPCQRETPEGAEAKPWYEPIYLGGVFQLEKGDRLSAEINRPDYLDFAESGQVYFGIIAL,Kd,[1],0.049 nM
same,Kd,[2],0.036 nM
